In patent publication US20140178390A1:
pKi: −log10 of the molar value.

Tests used:
Human CXCR7 (human) [1] = target: Human CXCR7 (human) (UniProt P25106); test: [125I]-CXCL12 displacement on NIH3T3-hCXCR7 cells, relative to cold SDF-1
Human CXCR7 (human) [2] = target: Human CXCR7 (human) (UniProt P25106); test: cell-based or functional assay
Human CXCR7 (human) [3] = target: Human CXCR7 (human) (UniProt P25106); test: competition FACS with 4 nM biotinylated SDF-1 on HEK-hCXCR7 cells
Human CXCR7 (human) [4] = target: Human CXCR7 (human) (UniProt P25106); test: [125I]-CXCL12 displacement on NIH3T3-hCXCR7 cells

Sequence of Human CXCR7 (human) (P25106 whole entry): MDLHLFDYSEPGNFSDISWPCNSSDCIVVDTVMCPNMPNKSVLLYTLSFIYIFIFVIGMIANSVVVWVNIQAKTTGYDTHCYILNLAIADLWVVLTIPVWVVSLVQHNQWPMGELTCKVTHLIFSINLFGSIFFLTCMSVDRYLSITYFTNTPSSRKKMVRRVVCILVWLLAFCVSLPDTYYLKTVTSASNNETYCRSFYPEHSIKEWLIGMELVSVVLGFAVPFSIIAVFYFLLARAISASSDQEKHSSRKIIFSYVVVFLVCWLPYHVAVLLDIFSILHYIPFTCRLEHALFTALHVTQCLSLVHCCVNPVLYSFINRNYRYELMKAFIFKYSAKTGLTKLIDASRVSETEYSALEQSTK

Mab 8F11 (Biolegend) (antibody)
Average SDF-1 displacement (%) (Human CXCR7 (human) [1]): 73%
β-arrestin recruitment in absence of HSA [IC50] (Human CXCR7 (human) [2]): 12.9
β-arrestin recruitment in presence of HSA [IC50] (Human CXCR7 (human) [2]): 34.8
competition relative to unlabelled SDF-1 (%) (Human CXCR7 (human) [3]): > 95%
pKi (Human CXCR7 (human) [4]): 8.23
